In paper PMC5376975, “Structural studies of RFCC tf18 reveal a novel chromatin recruitment role for Dcc1”:

T1: Dcc1 C-terminus WT (Saccharomyces cerevisiae, UniProt P25559 90-380)
T1 sequence: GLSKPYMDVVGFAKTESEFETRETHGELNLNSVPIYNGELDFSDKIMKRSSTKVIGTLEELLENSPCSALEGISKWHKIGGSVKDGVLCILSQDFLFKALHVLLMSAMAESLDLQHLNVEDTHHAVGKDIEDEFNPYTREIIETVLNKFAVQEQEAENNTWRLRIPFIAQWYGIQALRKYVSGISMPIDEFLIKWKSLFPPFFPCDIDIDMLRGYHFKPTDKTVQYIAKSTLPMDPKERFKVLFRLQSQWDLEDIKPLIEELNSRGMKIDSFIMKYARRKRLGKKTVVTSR


Target: T1, Dcc1 C-terminus WT
Experiment: EMSA; 1 uM DNA; EMSA, 6% native gel in 0.5x TBE, 4 C, DNA 1 uM unless stated; binding buffer, salt and pH not stated (protein storage 10 mM Tris pH 7.5, 150 mM NaCl, 0.5 mM TCEP for the complex)
Conditions: protein: recombinant, tags: expressed by the complex protocol

Row | Binder | binding result (label: 5' 6-FAM on sense strand) | binding result (label: 5' 6-FAM)
1 | 22-mer dsDNA (dsDNA) DNA 1: TCTCCACAGGAAACGGAGGGGT DNA 2: ACCCCTCCGTTTCCTGTGGAGA | binds | 
2 | TTTTTTTTTTTTTTTTTTTTTTTTT (ssDNA) [25-mer oligo d(T)] |  | binds
